Test [1] addresses T1, human PD-L1 (human, UniProt Q9NZQ7 19-290).
T1 construct: Expressed on IIAdL1 or DOdKO cells; also called hPD-L1
In words: co-immunoprecipitation, IIAdL1 cells expressing the human molecules, western blot. On the technique in general: A western blot detects proteins with antibodies after separation by electrophoresis.

Test [2] concerns the target T1, human PD-L1. The description is as described for the mutants of Test 4; no separate experiment told for the double mutant.
For test [3], the target named is T1, human PD-L1. In words: flow cytometry; PD-1-EC staining of IIAdL1 cells (FIG. 29). For orientation: A flow cytometer gives signals particle by particle.
Test [4] concerns the target T1, human PD-L1. In words: flow cytometry; DOdKO-hPD-L1/hCD80 cells pretreated with 30 ug/mL TKMF5, stained with human PD-1-EC.
Test [5] deals with T2, mouse PD-L1 (mouse, UniProt Q9EP73 19-290).
T2 construct: Overexpressed on IIAdL1 cells or DOdKO cells; also called mPD-L1; CD274
T2 sequence (Q9EP73 19-290 limits assumed): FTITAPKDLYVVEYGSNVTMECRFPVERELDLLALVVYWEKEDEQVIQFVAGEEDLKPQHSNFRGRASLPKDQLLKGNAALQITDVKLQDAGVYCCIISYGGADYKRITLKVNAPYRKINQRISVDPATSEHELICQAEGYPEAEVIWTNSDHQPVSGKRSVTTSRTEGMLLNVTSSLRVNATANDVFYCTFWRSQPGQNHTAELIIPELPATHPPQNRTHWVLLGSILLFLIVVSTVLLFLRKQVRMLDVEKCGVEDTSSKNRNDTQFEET
The description is as described for the mutants of Test 3; no separate experiment told for the double mutant.

Test [6] has as its target T2, mouse PD-L1. The test is described as described for the mutants of Test 3 (PD-1-EC staining of cells co-expressing PD-L1).
Test [7] addresses T2, mouse PD-L1. Briefly: flow cytometry; DOdKO-mPD-L1/mCD80 cells pretreated with 10 ug/ml TKMG48 or control IgG, stained with mouse PD-1-EC; (TKMG48 treated group-control group)/(control IgG group-control group).
The target of the next test is T3, mouse CD80 (mouse, UniProt Q00609 38-306).
T3 construct: Overexpressed on IIAdL1 cells or DOdKO cells; also called mCD80
T3 sequence: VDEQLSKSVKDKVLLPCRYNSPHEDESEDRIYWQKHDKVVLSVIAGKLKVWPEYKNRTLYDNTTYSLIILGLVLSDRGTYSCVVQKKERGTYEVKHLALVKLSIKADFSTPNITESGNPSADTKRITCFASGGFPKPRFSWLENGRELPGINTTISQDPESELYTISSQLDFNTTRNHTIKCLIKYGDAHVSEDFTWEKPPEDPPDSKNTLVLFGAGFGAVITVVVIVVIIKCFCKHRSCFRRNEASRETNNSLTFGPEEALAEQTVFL
In words: flow cytometry, IIAdL1 cells expressing CD80 alone, soluble PD-1-EC.

Data on nine molecules can be found in patent publication US20260242482A1 (ONO PHARMACEUTICAL, published 2026).

Positions count from the first letter of the chain named. Names and notes keep the numbering of the source.

T1 sequence (Q9NZQ7 19-290 limits assumed): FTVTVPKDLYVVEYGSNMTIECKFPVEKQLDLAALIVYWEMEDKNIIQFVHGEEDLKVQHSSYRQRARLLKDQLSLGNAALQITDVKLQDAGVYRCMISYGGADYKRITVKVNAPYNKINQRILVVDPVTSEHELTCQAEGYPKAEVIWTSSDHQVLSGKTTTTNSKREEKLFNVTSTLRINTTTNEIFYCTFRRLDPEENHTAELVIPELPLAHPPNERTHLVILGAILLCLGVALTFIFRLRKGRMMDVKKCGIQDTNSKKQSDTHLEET

B1: human CD80 (ligand)
chain: VIHVTKEVKEVATLSCGHNVSVEELAQTRIYWQKEKKMVLTMMSGDMNIWPEYKNRTIFDITNNLSIVILALRPSDEGTYECVVLKYEKDAFKREHLAEVTLSVKADFPTPSISDFEIPTSNIRRIICSTSGGFPEPHLSWLENGEELNAINTTVSQDPETELYAVSSKLDFNMTTNHSFMCLIKYGHLRVNQTFNWNTTKQEHFPDNLLPSWAITLISVNGIFVICCLTYCFAPRCRERRRNERLRRESVRPV
notes: Expressed on IIAdL1, DOdKO or DOdPD cells; also called hCD80
In the case of B1, the binding result in the test with human PD-L1 [1] is on record as “binds”.

B2: human CD80 mutant (having I92E and L104E mutations) lacking the ability to bind to human PD-L1 (ligand)
chain: B1 chain with I58E, L70E
For B2, the binding result in the test with human PD-L1 [2] was “no binding”.

B3: human CD80L104E mutant (ligand)
chain: B1 chain with L70E
With B3, the binding result with human PD-L1 [3] is on record as “no binding”.

B4: human CD80I92E (ligand)
chain: B1 chain with I58E
In the case of B4, the binding result in the test with human PD-L1 [3] was “no binding”.

B5: human PD-1-EC (receptor)
chain: LDSPDRPWNPPTFSPALLVVTEGDNATFTCSFSNTSESFVLNWYRMSPSNQTDKLAAFPEDRSQPGQDCRFRVTQLPNGRDFHMSVVRARRNDSGTYLCGAISLAPKAQIKESLRAELRVTERRAEVPTAHPSPSPRPAGQFQDYKDDDDK
notes: domain: five-stranded coiled coil domain; also called human PD-1 extracellular region soluble chimeric protein; hPD-1; not shown: five-stranded coiled coil domain of cartilage oligomer matrix protein (Terskikh et al. 1997), fused to the C-terminus
B5: the “ratio of cells that bound to PD-1-EC” value in the test with human PD-L1 [4] is around 50%.

B6: mouse CD80 with the L96E and L107E mutations (ligand)
chain: T3 sequence with L59E, L70E
B6: the binding result in the test with mouse PD-L1 [5] is “no binding”.

B7: mouse CD80 with the L96E mutation (ligand)
chain: T3 sequence with L59E
notes: also called CD80 L96E
As to B7, the binding result with mouse PD-L1 [6] is on record as “no binding”.

B8: mouse CD80L107E (ligand)
chain: T3 sequence with L70E
notes: also called L107E mutant
For B8, the binding result with mouse PD-L1 [6] is on record as “no binding”.

B9: soluble mouse PD-1 extracellular region (PD-1-EC) protein (receptor)
chain: LEVPNGPWRSLTFYPAWLTVSEGANATFTCSLSNWSEDLMLNWNRLSPSNQTEKQAAFCNGLSQPVQDARFQIIQLPNRHDFHMNILDTRRNDSGIYLCGAISLHPKAKIEESPGAELVVTERILETSTRYPSPSPKPEGRFQDYKDDDDK
notes: domain: five-stranded coiled coil domain; Soluble chimeric protein from 293T or Plat-E culture supernatant; also called mouse PD-1-EC; mPD-1; not shown: five-stranded coiled coil domain of cartilage oligomer matrix protein (Terskikh et al. 1997), fused to the C-terminus
For B9, in the test with mouse PD-L1 [7], the “amount of binding (mean fluorescence intensity) after TKMG48 pretreatment relative to control IgG pretreatment” value was around 10.1 times. In the test with mouse CD80, the binding result was “no binding”.
